Experimental findings from patent publication US20260159606A1 (VIB VZW, published 2026) are described below.

Test [1] deals with T1, D275N- and R277T-mutant hPIV-3 HN, expressed on transfected HEK293T cells (human parainfluenza virus 3 (hPIV-3), UniProt P08492 1-572).
T1 construct: also called mut HN3
T1 chain: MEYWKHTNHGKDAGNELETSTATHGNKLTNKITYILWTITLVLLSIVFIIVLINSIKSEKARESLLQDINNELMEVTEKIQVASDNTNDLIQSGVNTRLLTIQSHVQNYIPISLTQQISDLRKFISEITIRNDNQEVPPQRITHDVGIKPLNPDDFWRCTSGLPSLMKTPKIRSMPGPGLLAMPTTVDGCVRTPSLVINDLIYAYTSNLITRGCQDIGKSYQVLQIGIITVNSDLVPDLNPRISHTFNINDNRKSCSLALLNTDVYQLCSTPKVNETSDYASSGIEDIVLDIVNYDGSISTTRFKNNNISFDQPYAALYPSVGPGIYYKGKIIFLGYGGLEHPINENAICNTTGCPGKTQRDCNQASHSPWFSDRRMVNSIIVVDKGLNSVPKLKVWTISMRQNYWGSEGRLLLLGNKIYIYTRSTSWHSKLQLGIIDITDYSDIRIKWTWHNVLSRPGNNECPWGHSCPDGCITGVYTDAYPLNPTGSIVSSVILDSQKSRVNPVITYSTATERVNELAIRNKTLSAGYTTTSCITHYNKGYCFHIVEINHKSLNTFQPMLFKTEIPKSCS
The experiment in a line: flow cytometry on transfected HEK293T cells, VHH 1 or 0.1 µg/ml (FIG. 11C). On the technique in general: A flow cytometer gives signals particle by particle.

Test [2] deals with T2, hPIV-3 fusion protein (F), expressed on transfected HEK293T cells (human parainfluenza virus 3 (hPIV-3), UniProt P06828 19-539).
T2 construct: whole, on cells
The experiment in a line: flow cytometry on transfected HEK293T cells (FIG. 4).

Test [3] deals with T3, hPIV-3 hemagglutinin-neuraminidase (HN), expressed on transfected HEK293T cells (human parainfluenza virus 3 (hPIV-3), UniProt P08492 1-572).
T3 chain: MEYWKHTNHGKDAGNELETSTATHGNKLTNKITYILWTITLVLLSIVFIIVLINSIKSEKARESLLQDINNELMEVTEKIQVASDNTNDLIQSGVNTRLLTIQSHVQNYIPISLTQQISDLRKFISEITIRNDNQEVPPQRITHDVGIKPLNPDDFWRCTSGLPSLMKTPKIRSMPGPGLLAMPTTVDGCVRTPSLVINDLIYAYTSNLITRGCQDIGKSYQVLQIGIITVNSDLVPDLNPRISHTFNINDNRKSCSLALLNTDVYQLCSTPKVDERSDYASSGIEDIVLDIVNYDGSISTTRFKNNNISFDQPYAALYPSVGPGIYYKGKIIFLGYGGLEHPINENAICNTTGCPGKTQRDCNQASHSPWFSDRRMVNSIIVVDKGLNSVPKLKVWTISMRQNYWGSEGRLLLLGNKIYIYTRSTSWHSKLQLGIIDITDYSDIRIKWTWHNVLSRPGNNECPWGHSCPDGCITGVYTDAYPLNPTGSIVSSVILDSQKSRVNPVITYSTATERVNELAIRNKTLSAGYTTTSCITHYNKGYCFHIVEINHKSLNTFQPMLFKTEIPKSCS

The target of test [4] is T1, D275N- and R277T-mutant hPIV-3 HN, …. Description: flow cytometry on transfected HEK293T cells (FIG. 11C).
Test [5] addresses HN of hPIV-3-GFP virus (on virions and on hPIV-3-infected cells) (human parainfluenza virus 3 (hPIV-3), UniProt P08492 1-572). The experiment in a line: cell-based or functional assay.
Test [6] deals with T3, hPIV-3 hemagglutinin-neuraminidase …. The experiment in a line: flow cytometry on transfected HEK293T cells, 10 µg/ml (FIG. 16A).

B1: VHH A2R3-60 (VHH)
VHH: QVQLQESGGGLVQPGGSLRLDCAASGTTVSINGMGWYRQAPGKQREFVALSTTGGVTNYADSVKGRFTISMDNAKKTVALQMNSLKPEDTAVYYCNAVASPSWGLYDDYWGQGTQVTVSS
notes: also called 2AR3-60
Regarding B1, the binding result is given as “binds” in test [1] and “no binding (tested: 1 µg/ml)” in test [2]. Further, in test [3], the “fold reduction of binding at 500 µg/ml of zanamivir” value came out at 1.5 fold.

B2: bivalent VHH A2R3-57-57 (VHH)
chain: QVQLQESGGGLVQPGGSLRLSCAASGSIFSTDAMGWYRQPPGKQRELVATITSGGSTNYVDSVKGRFTISRDNAKNTVYLQMNSLKPEDTAVYYCALHQTTGWGLYNDYWGQGTQVTVSSGGGGSGGGGSGGGGSQVQLQESGGGLVQPGGSLRLSCAASGSIFSTDAMGWYRQPPGKQRELVATITSGGSTNYVDSVKGRFTISRDNAKNTVYLQMNSLKPEDTAVYYCALHQTTGWGLYNDYWGQGTQVTVSS
notes: also called bivalent A2R3-57
As to B2, the binding result in test [4] is “no binding (tested: 1 or 0.1 µg/ml)”. Besides, the “fold higher potency of hPIV-3-GFP neutralization than the monovalent counterpart” value in test [5] is approximately 150 fold.

B3: humanized A2R3-59-59 bivalent construct version 1 (VHH)
chain: DVQLVESGGGLVQPGGSLRLSCAASGSISGINGMGWYRQAPGKQRELVAAITSGGSTNYADSVKGRFTISRDNAKNTVYLQMNSLRPEDTAVYYCYVSSTPSWGLYDDYWGQGTLVTVSSGGGGSGGGGSGGGGSEVQLVESGGGLVQPGGSLRLSCAASGSISGINGMGWYRQAPGKQRELVAAITSGGSTNYADSVKGRFTISRDNAKNTVYLQMNSLRPEDTAVYYCYVSSTPSWGLYDDYWGQGTLVTVSS
notes: also called A2R3-h59-59
On to B3, for which the binding result in test [6] was “binds”.

B4: VHH A2R3-59 (VHH)
VHH: QVQLQESGGGLVQPGGSLRLSCAASGSISGINGMGWYRQAPGKQRELVAAITSGGSTNYADSVKGRFTISRDNAKNTVDLQMNSLQPEDTAVYYCYVSSTPSWGLYDDYWGQGTQVTVSS
notes: also called 2AR3-59
In the case of B4, the binding result is reported as “binds” in test [1] and “no binding (tested: 1 µg/ml)” in test [2]. In addition, the “fold reduction of binding at 500 µg/ml of zanamivir” value in test [3] worked out at 2.4 fold.

B5: bivalent VHH A2R3-55 (VHH)
chain: QVQLQESGGGLVQAGGSLRLSCAASGSIDRIDAMGWSRQAPGKQRELVATITTGGITNYAVSVKGRFTISRDNAKNTVYLQMNSLKPEDTAVYYCNAQGAPSWGLYEDYWGQGTQVTVSSGGGGSGGGGSGGGGSQVQLQESGGGLVQAGGSLRLSCAASGSIDRIDAMGWSRQAPGKQRELVATITTGGITNYAVSVKGRFTISRDNAKNTVYLQMNSLKPEDTAVYYCNAQGAPSWGLYEDYWGQGTQVTVSS
notes: also called bivalent A2R3-55
Consider B5, for which the binding result in test [4] is on record as “no binding (tested: 1 or 0.1 µg/ml)”. Besides, the “fold higher potency of hPIV-3-GFP neutralization than the monovalent counterpart” value in test [5] was approximately 50 fold.

B6: humanized A2R3-59-Fc construct version 1 (Fc fusion)
chain: DVQLVESGGGLVQPGGSLRLSCAASGSISGINGMGWYRQAPGKQRELVAAITSGGSTNYADSVKGRFTISRDNAKNTVYLQMNSLRPEDTAVYYCYVSSTPSWGLYDDYWGQGTLVTVSSGGGGSGGGGSDKTHTCPPCPAPEAAGGPSVFLFPPKPKDTLMISRTPEVTCVVVDVSHEDPEVKFNWYVDGVEVHNAKTKPREEQYNSTYRVVSVLTVLHQDWLNGKEYKCKVSNKALGAPIEKTISKAKGQPREPQVYTLPPSRDELTKNQVSLTCLVKGFYPSDIAVEWESNGQPENNYKTTPPVLDSDGSFFLYSKLTVDKSRWQQGNVFSCSVMHEALHNHYTQKSLSLSPG
notes: also called h59-Fc; A2R3-h59-Fc
For B6, the binding result in test [6] is on record as “binds”.

B7: humanized A2R3-60-60 bivalent construct version 1 (VHH)
chain: DVQLVESGGGLVQPGGSLRLSCAASGTTVSINGMGWYRQAPGKQREFVALSTTGGVTNYADSVKGRFTISRDNAKNTVYLQMNSLRPEDTAVYYCNAVASPSWGLYDDYWGQGTLVTVSSGGGGSGGGGSGGGGSEVQLVESGGGLVQPGGSLRLSCAASGTTVSINGMGWYRQAPGKQREFVALSTTGGVTNYADSVKGRFTISRDNAKNTVYLQMNSLRPEDTAVYYCNAVASPSWGLYDDYWGQGTLVTVSS
notes: also called A2R3-h60-60
For the molecule B7, the binding result in test [6] is recorded as “binds”.
